Test results as given in paper PMC5318895, “Inhibition of N1-Src kinase by a specific SH3 peptide ligand reveals a role for N1-Src in neurite elongation by L1-CAM” (Scientific Reports, 2017).
No end group written: not given here.

How the values were obtained:
[1] = tested on: cerebellar granule neurons; experiment: neurite outgrowth of cultured cerebellar granule neurons (polyLys); type: cell-based, rat; details: n = 3 experiments, 30 cells per condition
Method: We next took advantage of the specificity of PDN1 to investigate the role of endogenous N1-Src in neurite outgrowth in cultured neurons. CFP-PDN1 or -PDN1(P5A) was transfected into 1 DIV CGNs and their morphology analysed after […]. During CGN development in vivo and immediately after plating in vitro, the cells grow two processes before polarising to yield a single axon and the second process retracts to become a dendrite and further dendrites are initiated. The axon then extends further before bifurcating. […] To further confirm that N1-Src regulates neurite growth we employed an shRNA expressing plasmid (pSUPER-GFP) to knockdown N1-Src in neurons. […] The successful N1-Src shRNA plasmid was transfected into hippocampal neurons, and the length of the longest neurite in GFP-positive neurons was assessed at 48 h and 96 h post-transfection. […] Thus, perturbing N1-Src activity with PDN1 or knockdown of the protein produces the same neurite phenotype in primary neuronal cultures.
Figure 4 PDN1 inhibits neurite growth in cultured neurons. (a) Cultured cerebellar granule neurons were transfected 24 h after plating with CFP, CFP-PDN1 or CFP-PDN1(P5A) for 48 h prior to fixing and processing for immunofluorescence. Scale bar = 10 μm. (b,c) Length of longest neurite and branches per longest neurite were quantified using the NeuronJ plugin for ImageJ. Data were plotted as mean ± SEM, n = 3 experiments with 30 cells analysed per condition for each experiment. Statistical analysis was performed by one way ANOVA and post-hoc Tukey test (*P < 0.05; ***P < 0.001; n.s = not significant).
COS7 cells were plated at a density of 3 × 10^4 cells per well of a 24 well plate or 10^5 cells per well of a 6 well plate and transfected using EcoTransfect 24 h after plating according to the manufacturer’s instructions (Oz Biosciences, Marseille, France). […]
(§1) Analysis of COS7 cell area was performed with ImageJ software. The NeuronJ plugin[43] was used for the quantification of process length and branching in both COS7 cells and neurons. […]

N2-Src = experiment: morphology of COS7 cells transfected with N2-Src-FLAG; type: cell-based; details: COS7, co-transfection with N2-Src-FLAG 48 h; n = 3 experiments
Method: (§2) Previous studies have shown that soluble SH3 ligands can enhance Src family kinase activity in vitro[20][21]. […] This experiment raised the possibility that PDN1 could act as an N1-Src inhibitor in cells. […] We observed that COS7 cells transfected with N1-Src-FLAG underwent a striking change in morphology within 48 h (Fig. 3a). Similar to that previously observed in Xenopus epithelial cells, overexpression of the kinase induced the growth of neurite-like processes (Fig. 3b) and an approximate 35% reduction in area of the cell soma (Fig. 3c). […] Using cell morphology as a readout, we assessed the effect of CFP-PDN1 and PDN1(P5A) on N1-Src activity in cells. […] Furthermore, the peptides had no significant effect upon the morphology of C-Src transfected cells. We also assessed the effect of PDN1 on N2-Src expressing cells because the first five amino acids of its SH3 insert are identical to that in N1-Src[3].
Figure 3 CFP-PDN1 inhibits the biological activity of N1-Src in cells. […] Twenty representative fields of view (~50 cells) per condition in each experiment were analysed to quantify (b) number of processes per cell and (c). […]
as §1

N1-Src [2] = biological target: T1, N1-Src (Rattus norvegicus, UniProt Q9WUD9); experiment: co-immunoprecipitation of N1-Src-FLAG and CFP-PDN1 from COS7 cells; type: binding; design: His; made in house; host or cells: E. coli; details: COS7 cells co-transfected with N1-Src-FLAG, lysed after 48 h; anti-FLAG IP, anti-GFP detection
[3] = tested on: cerebellar granule neurons; experiment: L1-CAM-dependent neurite elongation in cultured cerebellar granule neurons; type: cell-based, rat; details: n = 3 experiments
Source text: A previous study of Src^−/− mice provided a possible mechanism for the effects of N1-Src upon neurite development. […] Src^−/− mice lack C-, N1- and N2-Src, but the isoform responsible for the impaired neurite outgrowth on L1-CAM was not identified in the study. We therefore investigated whether PDN1 affects L1-CAM-dependent neurite growth in cultured CGNs. Recombinant L1-CAM extracellular domain mixed with the fluorescent dye FITC were spotted in the centre of poly-D-lysine (polyLys) coated glass coverslips (Fig. 6a). CGNs were then plated over the whole surface of the coverslip, allowing a direct comparison between neurons growing on L1-CAM and polyLys.
Figure 6 PDN1 inhibits neurite elongation mediated by L1-CAM. (a) Schematic of the poly-D-lysine (polyLys) coated coverslips treated with a droplet of L1-CAM and FITC. […] (b) Cultured cerebellar granule neurons transfected with CFP were grown on the indicated concentrations of L1-CAM and the length of the longest neurite (axon) determined. (c,d) CGNs were plated on polyLys coated coverslips with a region of […] L1-CAM (see a) and transfected after 24 h with CFP (control) or CFP-PDN1 for 48 h prior to fixing and processing for fluorescence microscopy. Length of longest neurite (c) and branches on the longest neurite (d) were quantified for neurons in the polyLys or L1-CAM regions using the NeuronJ plugin for ImageJ. All data were plotted as mean ± SEM, n = 3 experiments with 30 cells analysed per condition for each experiment. Statistical analysis was performed by one way ANOVA and post-hoc Tukey test (*P < 0.05; **P < 0.01; n.s = not significant).
Using a concentration of 25 μg/ml L1-CAM, which induced a 50% increase in neurite length, we then determined the effect of CFP-PDN1 transfection on neurite length on L1-CAM or polyLys. […]
as §1

N1-Src [4] = biological target: T1, N1-Src; experiment: morphology of COS7 cells transfected with N1-Src-FLAG; type: cell-based; details: for effect on N1-Src-induced shrinkage of the cell soma (cell area) / effect on number of neurites (processes) per cell: COS7, co-transfection with N1-Src-FLAG 48 h, mean, n = 3 experiments, one way ANOVA
Method: as §2
Figure 3 CFP-PDN1 inhibits the biological activity of N1-Src in cells. (a) COS7 cells were transfected for 48 h with empty plasmid (FLAG), C-, N1- or N2-Src-FLAG in combination with CFP, CFP-PDN1 or CFP-PDN1(P5A) and processed for immunofluorescence (green = CFP, red = Src-FLAG). Scale bar = 10 μm. Twenty representative fields of view (~50 cells) per condition in each experiment were analysed to quantify (b) number of processes per cell and (c). Data were plotted as mean ± SEM (n = 3 experiments). Statistical analysis was performed by one way ANOVA and post-hoc Tukey test (*P < 0.05; ***P < 0.001; n.s = not significant).
COS7 cells were plated at a density of 3 × 10^4 cells per well of a 24 well plate or 10^5 cells per well of a 6 well plate and transfected using EcoTransfect 24 h after plating according to the manufacturer’s instructions (Oz Biosciences, Marseille, France). Rat cerebellar granule and hippocampal neurons were prepared as previously described[40][41] and approved by the Biology Ethics Committee, University of York. The animals were euthanised according to Schedule 1 of the UK Home Office Animals (Scientific Procedures) Act. Neurons were plated at a density of 2.5 × 10^5 cells per coverslip and transfected after 24 h using a calcium phosphate kit (Promega, Southampton, UK) or Lipofectamine2000 (Invitrogen, Paisley UK) according to the manufacturer’s instructions. Following transfection the medium was replaced with MEM culture medium with 10 μM arabinofuranosyl cytidine for the indicated time before fixing for staining and morphological analysis. For L1-CAM assays, a 10 μl droplet containing 25 μg/ml L1-CAM extracellular domain (R&D Systems) and 1 mg/ml fluorescein isothiocyanate (FITC) was spotted onto the centre of a poly-D-lysine coated coverslip and air dried for 1 h prior to plating neurons.
Analysis of COS7 cell area was performed with ImageJ software. The NeuronJ plugin[43] was used for the quantification of process length and branching in both COS7 cells and neurons. Where appropriate, statistical analyses of the data were performed with SigmaPlot software using one way ANOVA or Kruskal-Wallis tests with post-hoc pairwise comparisons by Tukey or Dunn tests respectively.

N1-Src [5] = biological target: T1, N1-Src; experiment: inhibition of N1-Src phosphorylation of GST-Y by free soluble peptide; type: biochemical; design: His; made in house; host or cells: E. coli; details: free soluble peptide titrated with 5 nM N1-Src and GST-Y; phosphotyrosine immunoblot densitometry; n = 3
Method: Previous studies have shown that soluble SH3 ligands can enhance Src family kinase activity in vitro[20][21]. […] This experiment raised the possibility that PDN1 could act as an N1-Src inhibitor in cells. […] We observed that COS7 cells transfected with N1-Src-FLAG underwent a striking change in morphology within 48 h (Fig. 3a). Similar to that previously observed in Xenopus epithelial cells, overexpression of the kinase induced the growth of neurite-like processes (Fig. 3b) and an approximate 35% reduction in area of the cell soma (Fig. 3c). […] Using cell morphology as a readout, we assessed the effect of CFP-PDN1 and PDN1(P5A) on N1-Src activity in cells. […] We also assessed the effect of PDN1 on N2-Src expressing cells because the first five amino acids of its SH3 insert are identical to that in N1-Src[3].
Figure 2 PDN1 inhibits N1-Src activity in vitro. GST-Y was incubated with 5 nM N1-Src and the indicated concentrations of either PDN1 or PDN1(P5A) and the extent of phosphorylation determined by densitometry of phosphotyrosine immunoreactivity. […]
Phosphorylation reactions were performed as previously described, prepared in kinase reaction buffer (100 mM Tris, 10 mM MgCl2, pH 7.5) and initiated by the addition of pre-warmed ATP (0.5 mM final concentration) and incubated at 30 °C for the indicated times. […] Due to the non-quantitative measurement of V, Vmax was not determined. […]

[6] = CGNs transfected with CFP fusions, one way ANOVA

CFP-PDN1: PDN1 fused to CFP, expressed in transfected cells (WHRMPAYTAKYP; also: fused to CFP, end not given here)
inhibition of mean length of longest neurite on polyLys ([1]; CGNs grown on polyLys, transfected 24 h after plating, 48 h): approximately 40% | branches per longest neurite [1, 6]: longest neurite branching was inhibited | length of longest neurite [1, 6]: reduced in length | rescue of morphology of N2-Src transfected cells (N2-Src): did not rescue wild type morphology | binding to N1-Src in cells (co-immunoprecipitation) (N1-Src [2]): can bind N1-Src in cells | length of longest neurite on L1-CAM compared with polyLys ([3]; CFP-PDN1 transfected CGNs on L1-CAM (25 μg/ml in text), 48 h, 30 cells per condition): not significantly different to that on polyLys | effect on N1-Src-induced shrinkage of the cell soma (cell area) (N1-Src [4]): prevented both the shrinkage of the cell soma | effect on number of neurites (processes) per cell (N1-Src [4]): reduced the number of neurites per cell | selectivity for N1-Src in cells (N1-Src [4]; COS7, compared with C-Src and N2-Src): selective for the N1-Src splice variant in cells

PDN1(P5A): PDN1(P5A) mutant peptide (WHRMAAYTAKYP)
inhibition of GST-Y phosphorylation (N1-Src [5]): no significant inhibition

CFP-PDN1(P5A): PDN1(P5A) mutant fused to CFP, expressed in transfected cells (WHRMAAYTAKYP; also: fused to CFP, end not given here)
binding to N1-Src in cells (co-immunoprecipitation) (N1-Src [2]): greatly reduced | effect on N1-Src-induced shrinkage of the cell soma (cell area) (N1-Src [4]): no significant effect on either parameter | effect on number of neurites (processes) per cell (N1-Src [4]): no significant effect on either parameter

B1: L1-CAM: Recombinant L1-CAM extracellular domain (R&D Systems) (protein, UniProt P32004 20-1120, looked up)
extracellular domain: IQIPEEYEGHHVMEPPVITEQSPRRLVVFPTDDISLKCEASGKPEVQFRWTRDGVHFKPKEELGVTVYQSPHSGSFTITGNNSNFAQRFQGIYRCFASNKLGTAMSHEIRLMAEGAPKWPKETVKPVEVEEGESVVLPCNPPPSAEPLRIYWMNSKILHIKQDERVTMGQNGNLYFANVLTSDNHSDYICHAHFPGTRTIIQKEPIDLRVKATNSMIDRKPRLLFPTNSSSHLVALQGQPLVLECIAEGFPTPTIKWLRPSGPMPADRVTYQNHNKTLQLLKVGEEDDGEYRCLAENSLGSARHAYYVTVEAAPYWLHKPQSHLYGPGETARLDCQVQGRPQPEVTWRINGIPVEELAKDQKYRIQRGALILSNVQPSDTMVTQCEARNRHGLLLANAYIYVVQLPAKILTADNQTYMAVQGSTAYLLCKAFGAPVPSVQWLDEDGTTVLQDERFFPYANGTLGIRDLQANDTGRYFCLAANDQNNVTIMANLKVKDATQITQGPRSTIEKKGSRVTFTCQASFDPSLQPSITWRGDGRDLQELGDSDKYFIEDGRLVIHSLDYSDQGNYSCVASTELDVVESRAQLLVVGSPGPVPRLVLSDLHLLTQSQVRVSWSPAEDHNAPIEKYDIEFEDKEMAPEKWYSLGKVPGNQTSTTLKLSPYVHYTFRVTAINKYGPGEPSPVSETVVTPEAAPEKNPVDVKGEGNETTNMVITWKPLRWMDWNAPQVQYRVQWRPQGTRGPWQEQIVSDPFLVVSNTSTFVPYEIKVQAVNSQGKGPEPQVTIGYSGEDYPQAIPELEGIEILNSSAVLVKWRPVDLAQVKGHLRGYNVTYWREGSQRKHSKRHIHKDHVVVPANTTSVILSGLRPYSSYHLEVQAFNGRGSGPASEFTFSTPEGVPGHPEALHLECQSNTSLLLRWQPPLSHNGVLTGYVLSYHPLDEGGKGQLSFNLRDPELRTHNLTDLSPHLRYRFQLQATTKEGPGEAIVREGGTMALSGISDFGNISATAGENYSVVSWVPKEGQCNFRFHILFKALGEEKGGASLSPQYVSYNQSSYTQWDLQPDTDYEIHLFKERMFRHQMAVKTNGTGRVRLPPAGFATE
modifications: extracellular domain
increase in neurite length by L1-CAM ([3]; 25 μg/ml L1-CAM coating, CFP-transfected CGNs): 50% | neurite outgrowth on L1-CAM ([3]; CFP-transfected CGNs on indicated L1-CAM concentrations): increases neurite outgrowth in a dose dependent manner
